Consider 13 molecules from US20210171596A1 (published 2021).

Changes are numbered by the printed parent chain. In names and notes the source's numbering stands.

T1: IL10R1-Fc (human, UniProt Q13651 22-235)
T1 chain: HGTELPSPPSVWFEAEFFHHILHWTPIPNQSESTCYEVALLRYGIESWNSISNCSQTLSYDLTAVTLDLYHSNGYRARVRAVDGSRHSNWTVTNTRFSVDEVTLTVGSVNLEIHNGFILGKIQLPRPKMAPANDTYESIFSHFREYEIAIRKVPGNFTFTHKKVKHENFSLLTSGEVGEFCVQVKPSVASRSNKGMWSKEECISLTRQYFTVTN

B1: XENP14246 (WT) (protein)
chain 1: EPKSSDKTHTCPPCPAPPVAGPSVFLFPPKPKDTLMISRTPEVTCVVVDVKHEDPEVKFNWYVDGVEVHNAKTKPREEEYNSTYRVVSVLTVLHQDWLNGKEYKCKVSNKALPAPIEKTISKAKGQPREPQVYTLPPSREEMTKNQVSLTCDVSGFYPSDIAVEWESDGQPENNYKTTPPVLDSDGSFFLYSKLTVDKSRWEQGDVFSCSVMHEALHNHYTQKSLSLSPGK
chain 2: SPGQGTQSENSCTHFPGNLPNMLRDLRDAFSRVKTFFQMKDQLDNLLLKESLLEDFKGYLGCQALSEMIQFYLEEVMPQAENQDPDIKAHVNSLGENLKTLRLRLRRCHRFLPCENGGGSGGKSKAVEQVKNAFNKLQEKGIYKAMSEFDIFINYIEAYMTMKIRNEPKSSDKTHTCPPCPAPPVAGPSVFLFPPKPKDTLMISRTPEVTCVVVDVKHEDPEVKFNWYVDGVEVHNAKTKPREEQYNSTYRVVSVLTVLHQDWLNGKEYKCKVSNKALPAPIEKTISKAKGQPREPQVYTLPPSREQMTKNQVKLTCLVKGFYPSDIAVEWESNGQPENNYKTTPPVLDSDGSFFLYSKLTVDKSRWQQGNVFSCSVMHEALHNHYTQKSLSLSPGK
B2: XENP25763 (I87A) (protein)
chain 1: B1 chain 1
chain 2: B1 chain 2 with I87A
B3: XENP25753 (N21D) (protein)
chain 1: B1 chain 1
chain 2: B1 chain 2 with N21D
B4: XENP25758 (Q42E) (protein)
chain 1: B1 chain 1
chain 2: B1 chain 2 with Q42E
B5: XENP25759 (L43V) (protein)
chain 1: B1 chain 1
chain 2: B1 chain 2 with L43V
B6: XENP25760 (D44N) (protein)
chain 1: B1 chain 1
chain 2: B1 chain 2 with D44N
B7: XENP25754 (D28N) (protein)
chain 1: B1 chain 1
chain 2: B1 chain 2 with D28N
B8: XENP25756 (M39T) (protein)
chain 1: B1 chain 1
chain 2: B1 chain 2 with M39T
B9: XENP25761 (N45D) (protein)
chain 1: B1 chain 1
chain 2: B1 chain 2 with N45D
B10: XENP25767 (D144N) (protein)
chain 1: B1 chain 1
chain 2: B1 chain 2 with D150N
B11: XENP25755 (Q38E) (protein)
chain 1: B1 chain 1
chain 2: B1 chain 2 with Q38E
B12: XENP25757 (D41N) (protein)
chain 1: B1 chain 1
chain 2: B1 chain 2 with D41N
B13: XENP25768 (E151Q) (protein)
chain 1: B1 chain 1
chain 2: B1 chain 2 with E157Q

The first assay has as its target T1, IL10R1-Fc. The assay can be described thus: BLI.
In the case of B1, the Kd was determined as 5.05 nM.
For B2, the Kd was found to be 14.4 nM.
The same measure, in the same setting: for B3 the value was 8.14 nM; for B4, 7.3 nM; for B5, 16.4 nM.
Same read-out and setting: as for B6, the figure is 1.23 nM.
Take B7: binding was characterised by a dissociation constant (Kd) of 3.86 nM.
Same read-out and setting: as for B8, the figure is 4.76 nM.
On the same count and under the same terms, for B9 the value was 10.6 nM.

For a further assay, the target named is T1, IL10R1-Fc. Nature of the assay: BLI; marked *.
Molecule B10 registered a Kd of 23.8 nM.
Take B11: binding was put at a Kd of 6.13 nM.
The same measure, in the same setting: for B12 the value was 12.4 nM; for B13, 12.4 nM.
